From patent publication US20240228599A1 come the findings set out here.

The target in the assay is cynomolgus monkey Factor B (cynomolgus monkey). Description: ELISA; cynomolgus Factor B coated at 5 µg/mL, mAb in 3-fold dilutions from 10 µg/mL; EC50 by Prism according to the text, headed 'Binding Affinity (M)' on the sheet.

The term EC50 denotes the midpoint of the concentration-response curve.

B1: anti-factor Bb monoclonal antibody M12 (antibody, V domains shown)
VH: EVQLQQSGPELVKPGASVKMSCKASGYSFTDYLMNWVKQSHGKSLEWIGRINPYNGDAFYNQRFKGKATLTVDKSSSTAHMELRSLTSEDSALYYCARLENDYGFTYWGQGTLVTVSA
VL: DIVMTQAAFSNPVTLGTSASISCSSSKSLLHSNGITYLYWYLQRPGQSPQLLIYRMSNLASGVPDRFSGSGSGTDFTLRISRVEAEDVGVYYCAQMLERPWTFGGGTKLEIK
Turning to B1, the EC50 came to 5.56 nM.
